T1: SARS-COV-2 spike (S) protein peptide on HLA-DRA*01:01 / HLA-DRB1*15:01 (human)
T1 peptide: LLTDEMIAQYTSALLAGTI

T2: SARS-COV-2 spike (S) protein peptide on HLA-DRA*01:01 / HLA-DRB1*15:01 (human)
T2 peptide: DEMIAQYTSALLAGT

T3: SARS-COV-2 spike (S) protein peptide on HLA-DRA*01:01 / HLA-DRB1*15:01 (human)
T3 peptide: AQYTSALLAGTITSG

T4: SARS-COV-2 spike (S) protein peptide on HLA-DRA*01:01 / HLA-DRB1*15:01 (human)
T4 peptide: YTSALLAGTITSGWT

T5: SARS-COV-2 spike (S) protein peptide on HLA-DRA*01:01 / HLA-DRB1*15:02 (human)
T5 peptide: LLTDEMIAQYTSALLAGTI

T6: SARS-COV-2 S protein, S867-881 peptide with residue 5 (T) of SEQ ID NO: 13 replaced with alanine peptide on … (human)
T6 peptide: DEMIAQYASALLAGT

T7: SARS-COV-2 spike (S) protein peptide on HLA-DRA*01:01 / HLA-DRB1*15:01 (human)
T7 peptide: LPPLLTDEMIAQYTS

T8: SARS-COV-2 spike (S) protein peptide on HLA-DRA*01:01 / HLA-DRB1*15:01 (human)
T8 peptide: PPLLTDEMIAQYTSA

T9: SARS-COV-2 spike (S) protein peptide on HLA-DRA*01:01 / HLA-DRB1*15:01 (human)
T9 peptide: PLLTDEMIAQYTSAL


How the values were obtained:
[1] = test system: T-cell hybridomas expressing TCRs of clonotype 1/2 (clone 1 and clone 2); assay type: cell-based, human
[2] = test system: CD4 positive cells and patient-derived B cells immortalized by EBV infection; assay: Restimulation assay of PBMC by S864-882 peptide, human IL-21 ELISA; assay type: cell-based; conditions: peptide 1 μg/ml; 24 hr; compared with not stimulated
[3] = molecular target: T1, SARS-COV-2 spike (S) protein peptide on …; assay: activation reporter or marker
[4] = molecular target: T2, SARS-COV-2 spike (S) protein peptide on …; assay: activation reporter or marker
[5] = molecular target: T3, SARS-COV-2 spike (S) protein peptide on …; assay: activation reporter or marker
[6] = molecular target: T4, SARS-COV-2 spike (S) protein peptide on …; assay: activation reporter or marker
[7] = molecular target: T5, SARS-COV-2 spike (S) protein peptide on …; assay: activation reporter or marker
[8] = molecular target: T6, SARS-COV-2 S protein, S867-881 peptide …; assay: activation reporter or marker
[9] = molecular target: T7, SARS-COV-2 spike (S) protein peptide on …; assay: activation reporter or marker
[10] = molecular target: T8, SARS-COV-2 spike (S) protein peptide on …; assay: activation reporter or marker
[11] = molecular target: T9, SARS-COV-2 spike (S) protein peptide on …; assay: activation reporter or marker

Row | Molecule | stimulation of clones 1 and 2, CD69 expression ([1]; APC from an individual who has DRB1*15:02 but not DRB1*15:01) | epitope determination by stimulating clones 1 and 2 with single synthesized peptide, CD69 ([1]; single peptide 1 μg/ml, 20 hr, in the presence of APC) | concentration of IL-21 in the medium [2] | binding result [3] | binding result [4] | binding result [5] | binding result [6] | binding result [7] | binding result [8] | binding result [9] | binding result [10] | binding result [11]
1 | S864-882: peptide of positions 864-882 of the SARS-CoV-2 S protein, epitope of clones 1 and 2 | able to stimulate both clones 1 and 2 | determined as an epitope for both clones 1 and 2 | higher |  |  |  |  |  |  |  |  | 
2 | Clone 1 (TCR-017) (TCR) alpha TRAV12-1 TRAJ12 CDR3: CVVNRGSSYKLIF beta TRBV11-2 TRBJ2-7 CDR3: CASSQTYEQYF |  |  |  | recognises | recognises | no recognition | no recognition | recognises | no recognition | no recognition | no recognition | no recognition

Source: US20240309051A1, “[…] T (TFH) CELLS […] TO SARS-COV-2 VIRUS” (priority 2021, published 2024)
